Data: paper doi:10.1101/2024.09.16.613172

Tests used:
Assay in all cases: ITC
SH3L-optiMHETase = molecular target: SH3L-optiMHETase
[1] = molecular target: MHETase-CelF (not stated | Clostridium cellulolyticum) (UniProt P37698)
[2] = molecular target: FAST-PETase-CelK (not stated | Clostridium thermocellum)
[3] = molecular target: ICCG-ScaA (not stated | Ruminococcus flavefaciens)

Row | Substance | Kd (SH3L-optiMHETase) [nM] | Kd [1] [nM] | Kd [2] [nM] | Kd [3] [nM]
1 | CipA-CBM-SH3D (Scaf.3) | 12.6 | – | – | –
2 | CipA-CBM-CipC (Scaf.2) | – | 1000 | 19.1 | –
3 | CipA-CBM-SH3D-ScaB (Scaf.4) | 3.53 | – | 6.44 | 5.25
